This note sets out measurements from paper PMC3575800 (Nucleic Acids Research, 2013).

The target of experiment [1] is T1, PH domain of the Tfb1 subunit of TFIIH (Tfb1PH; residues 1-115) (S. cerevisiae, UniProt P32776 1-115).
T1 sequence (looked up): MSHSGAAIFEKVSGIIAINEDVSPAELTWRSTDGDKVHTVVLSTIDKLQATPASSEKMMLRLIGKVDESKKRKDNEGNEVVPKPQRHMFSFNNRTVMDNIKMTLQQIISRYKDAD
As to the kind of experiment: ITC. Background: Isothermal titration calorimetry measures the heat released or taken up as one component is titrated into another.

Experiment [2] deals with T1, PH domain of the Tfb1 subunit of TFIIH …. In words: NMR titration.

B1: Rad4 residues 76-115 (acidic segment from the N-terminal region of Rad4) (domain or fragment, S. cerevisiae, UniProt P14736 76-115, looked up)
chain: TDDSVEEIQSSEEDYDSEEFEDVTDGNEVAGVEDISVEIK
As for B1, in experiment [1], the affinity, expressed as Kd, was 50 nM and the “stoichiometry N” value was determined as 1.

B2: Rad4 residues 76-115, F95P mutant (domain or fragment, S. cerevisiae, UniProt P14736 76-115, looked up)
chain: TDDSVEEIQSSEEDYDSEEPEDVTDGNEVAGVEDISVEIK
On to B2, for which, in experiment [1], the “fold reduction of affinity against Rad4 76-115” value is 50 fold and the “stoichiometry N” value was 1.

B3: Rad4 residues 76-115, V98P mutant (domain or fragment, S. cerevisiae, UniProt P14736 76-115, looked up)
chain: TDDSVEEIQSSEEDYDSEEFEDPTDGNEVAGVEDISVEIK
Turning to B3, in experiment [1], the “fold reduction of affinity against Rad4 76-115” value amounted to 24 fold and the “stoichiometry N” value was determined as 1.

B4: Rad34 residues 41-63 (peptide, UniProt Q06665 41-63, looked up)
chain: FYQDEEDDLSDIDWEEVSLDGSL
For the molecule B4, in experiment [1], the Kd turned out to be 11 nM and the “stoichiometry N” value amounted to 1.

B5: Rad34 residues 41-63, W54S mutant (peptide, UniProt Q06665 41-63, looked up)
chain: FYQDEEDDLSDIDSEEVSLDGSL
In experiment [1], B5 registered a Kd of over 10000 nM.

B6: Rad2 residues 359-383 (acidic segment of the spacer region of Rad2) (peptide, UniProt P07276 359-383, looked up)
chain: RSEDEGCDSDECEWEEVELKPKNVK
On to B6, for which the binding result in experiment [2] is “binds”.

As usually defined, the Kd is the free concentration of one partner at which half of the binding sites on the other are occupied at equilibrium, for simple one-to-one binding. Usually stoichiometry N stands for a count of units in the complex or per binding partner.
